Results as given in US20120201781A1 (AbbVie / Abbott, published 2012).

Experiments:
recombinant human IL-1α [1] = target: T1, recombinant human IL-1α (human, UniProt P01583 113-271); test: SPR (Biacore)
T1 construct: Purified recombinant protein bought from R&D Systems; also called hIL-1α; rhIL-1α
T1 sequence: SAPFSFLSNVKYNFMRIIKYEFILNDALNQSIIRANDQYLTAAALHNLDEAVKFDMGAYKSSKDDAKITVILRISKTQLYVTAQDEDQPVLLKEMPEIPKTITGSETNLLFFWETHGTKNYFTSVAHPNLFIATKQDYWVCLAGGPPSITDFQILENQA

recombinant human IL-1α [2] = target: T1, recombinant human IL-1α; test: cell-based or functional assay
recombinant human IL-1α [3] = target: T1, recombinant human IL-1α; test: cell-based or functional assay; remark: listed apart in the source
recombinant human IL-1α [4] = target: T1, recombinant human IL-1α; test: SPR (Biacore), saturating binding
recombinant human IL-1α [5] = target: T1, recombinant human IL-1α; test: SPR (Biacore), mAb captured via goat anti-mouse IgG
recombinant human IL-1α [6] = target: T1, recombinant human IL-1α; test: SPR (Biacore); remark: listed apart in the source
Experimental: (§1) The equilibrium dissociation constant (M) of the reaction between DVD-Ig molecule and rhIL1α/β was then calculated from the kinetic rate constants by the following formula: KD=koff/kon. Aliquots of rhIL1α/β samples were also simultaneously injected over a blank reference and reaction CM surface to record and subtract any nonspecific binding background to eliminate the majority of the refractive index change and injection noise. Surfaces were regenerated with two subsequent […] injections of 10 mM Glycine (pH 1.5) at a flow rate of […]. The anti-Fc antibody immobilized surfaces were completely regenerated and retained their full capture capacity over twelve cycles. The apparent stoichiometry of the captured DVD-Ig-rhIL1α/β complex was calculated under saturating binding conditions (steady-state equilibrium) using the following formula: […]
(§2) The affinity of the two DVD-Ig binding proteins to hIL-1 as compared to the affinity of chimeric antibodies to hIL-1 was similar as indicated by the evaluation of the stoichiometry to IL-1. Both chimeric antibodies, being bivalent monospecific, bound to IL-1α and IL-1β on Biacore with a stoichiometry of 1.6 and 1.7, respectively. This is common for an IgG due to inter-molecular interference when antibodies are immobilized densely on the Biacore sense chip resulting in stoichiometry being in the range from 1.5 to 2.0.

recombinant human IL-1β [7] = target: T2, recombinant human IL-1β (human, UniProt P01584 117-269); test: SPR (Biacore)
T2 construct: Recombinant protein; also called hIL-1β; rhIL-1β
Experimental: as §1, §2

recombinant human IL-1α [8] = target: T1, recombinant human IL-1α; test: cell-based or functional assay; remark: listed apart in the source
recombinant human IL-1β [9] = target: T2, recombinant human IL-1β; test: cell-based or functional assay
recombinant human IL-1β [10] = target: T2, recombinant human IL-1β; test: cell-based or functional assay; remark: listed apart in the source
recombinant human IL-1α [11] = target: T1, recombinant human IL-1α; test: SPR (Biacore), hIL-1α as 1st antigen
Experimental: (§3) In addition, tetravalent dual-specific antigen binding of DVD-Ig binding protein was also analyzed by Biacore (Table 14). DVD-Ig binding protein was first captured via a goat anti-human Fc antibody on the Biacore sensor chip, and the first antigen was injected and a binding signal observed. As the DVD-Ig binding protein was saturated by the first antigen, the second antigen was then injected and the second signal observed. This was done either by first injecting IL-1β then IL-1α or by first injecting IL-1α followed by IL-1β for DVD2-Ig binding protein. In either sequence, a dual-binding activity was detected. Similar results were obtained for DVD1-Ig binding protein. Thus, each DVD-Ig binding protein was able to bind both antigens simultaneously as a dual-specific tetravalent molecule. […] Upon the injection of the second antigen, while DVD-Ig binding protein was already occupied by the first antigen, the stoichiometry of both DVD-Igs binding protein to the second antigen (i.e., hIL-1α or hIL-1β was between 1.0 and 1.3. Thus, DVD-Ig binding protein was able to bind two IL-1α and two IL-β molecules. DVD-Ig binding protein was first captured via a goat anti-human Fc antibody on the Biacore sensor chip, and the first antigen was injected and a binding signal observed, followed by the injection of the second antigen.

recombinant human IL-1β [12] = target: T2, recombinant human IL-1β; test: SPR (Biacore), hIL-1β as 1st antigen
Experimental: as §3

recombinant human IL-1α [13] = target: T1, recombinant human IL-1α; test: SPR (Biacore 3000), saturating binding
Experimental: as §1, with “The association and dissociation rate constants, kon (M-1s-1) and koff (s-1) were determined under a continuous flow rate of 25 ml/minute. […] The equilibrium” for “The equilibrium”
as §2

recombinant human IL-1β [14] = target: T2, recombinant human IL-1β; test: SPR (Biacore 3000), saturating binding
Experimental: as §1, with “The association and dissociation rate constants, kon (M-1s-1) and koff (s-1) were determined under a continuous flow rate of 25 ml/minute. […] The equilibrium” for “The equilibrium”
as §2

recombinant human IL-1α [15] = target: T1, recombinant human IL-1α; test: SPR (Biacore), hIL-1α as 2nd antigen after hIL-1β
Experimental: as §3

recombinant human IL-1β [16] = target: T2, recombinant human IL-1β; test: SPR (Biacore), hIL-1β as 2nd antigen after hIL-1α
Experimental: as §3

recombinant human IL-1α [17] = target: T1, recombinant human IL-1α; test: SPR (Biacore 3000), binder captured via goat anti-human IgG Fc
Experimental: (§4) Approximately, 5000 RU of goat anti-human IgG Fcγ fragment specific polyclonal antibody (Pierce Biotechnology Inc, Rockford, Ill.) diluted in 10 mM sodium acetate (pH 4.5) was directly immobilized across a CM5 research grade biosensor chip using a standard amine coupling kit according to manufacturer's instructions and procedures at […]. Unreacted moieties on the biosensor surface were blocked with ethanolamine. Modified carboxymethyl dextran surface in flowcell 2 and 4 was used as a reaction surface. Unmodified carboxymethyl dextran without goat anti-human IgG in flow cell 1 and 3 was used as the reference surface. For kinetic analysis, rate equations derived from the 1:1 Langmuir binding model were fitted simultaneously to association and dissociation phases of all ten injections (using global fit analysis) using the Bioevaluation 4.0.1 software. Purified DVD-Ig samples were diluted in HEPES-buffered saline for capture across goat anti-human IgG Fc specific reaction surfaces and injected over reaction matrices at a flow rate of […]. The association and dissociation rate constants, kon (M-1s-1) and koff (s-1) were determined under a continuous flow rate of 25 ml/minute. […] The equilibrium dissociation constant (M) of the reaction between DVD-Ig molecule and rhIL1α/β was then calculated from the kinetic rate constants by the following formula: KD=koff/kon. Aliquots of rhIL1α/β samples were also simultaneously injected over a blank reference and reaction CM surface to record and subtract any nonspecific binding background to eliminate the majority of the refractive index change and injection noise. Surfaces were regenerated with two subsequent […] injections of 10 mM Glycine (pH 1.5) at a flow rate of […]. The anti-Fc antibody immobilized surfaces were completely regenerated and retained their full capture capacity over twelve cycles. The apparent stoichiometry of the captured DVD-Ig-rhIL1α/β complex was calculated under saturating binding conditions (steady-state equilibrium) using the following formula: […]

recombinant human IL-1β [18] = target: T2, recombinant human IL-1β; test: as above
Experimental: as §4

recombinant human IL-1β [19] = target: T2, recombinant human IL-1β; test: SPR (Biacore); remark: listed apart in the source
recombinant human IL-1β [20] = target: T2, recombinant human IL-1β; test: cell-based or functional assay; remark: listed apart in the source
recombinant human IL-1β [21] = target: T2, recombinant human IL-1β; test: SPR (Biacore), saturating binding
recombinant human IL-1β [22] = target: T2, recombinant human IL-1β; test: SPR (Biacore), mAb captured via goat anti-mouse IgG

B1: murine monoclonal antibody 3D12.E3 (antibody, V domains shown)
VH: QIQLVQSGPELKKPGETVKISCKASGYTFRNYGMNWVKQAPGKDLKRMAWINTYTGESTYADDFKGRFAFSLETSASTAYLQINNLKNEDTATYFCARGIYYYGSSYAMDYWGQGTSVTVSS
VL: NIQMTQTTSSLSASLGDRVTISCRASQDISNCLNWYQQKPDGTVKLLIYYTSRLHSGVPSRFSGSGSGTDYSLTISNLEQEDIATYFCQQGKTLPYAFGGGTKLEINR
notes: Murine hybridoma mAb, anti-hIL-1α
Work on B1 yielded a Kd (recombinant human IL-1α [1]) of 1.11 nM, a koff (recombinant human IL-1α [1]) of 0.000713 s⁻¹ and a kon (recombinant human IL-1α [1]) of 643000 M⁻¹ s⁻¹. The “IC50 (M), MRC-5 bioassay (inhibition of IL-8 production)” value (recombinant human IL-1α [2]) was 6.7e-10 M, the “Potency (IC50) M, MRC-5 bioassay” value (recombinant human IL-1α [3]) was 0.67 nM and the Stoichiometry (recombinant human IL-1α [4]) was 2. The Kd (recombinant human IL-1α [5]) was 1.11 nM.

B2: hIL-1α/β DVD2-Ig binding protein (bispecific antibody, human IgG1, kappa)
heavy: not shown
light: NIVLTQSPASLAVSLGQRATISCRASESVDSYGNSYMHWYQQKPGQPPKLLIYLASNLESGVPARFSGSGSRTDFTLTIDPVEADDAATYYCQQNNEDPFTFGSGTKLEIKRADAAPNIQMTQTTSSLSASLGDRVTISCRASQDISNCLNWYQQKPDGTVKLLIYYTSRLHSGVPSRFSGSGSGTDYSLTISNLEQEDIATYFCQQGKTLPYAFGGGTKLEINRTVAAPSVFIFPPSDEQLKSGTASVVCLLNNFYPREAKVQWKVDNALQSGNSQESVTEQDSKDSTYSLSSTLTLSKADYEKHKVYACEVTHQGLSSPVTKSFNRGEC
notes: 13F5.G5 V - linker (heavy AKTTPP, light ADAAP) - 3D12.E3 V, human Cγ1/Cκ
In the case of B2, the “fold lower affinity than the chimeric 3D12.E3 antibody” value (recombinant human IL-1α [6]) is reported as 3 fold, the “fold higher affinity than DVD1-Ig binding protein” value (recombinant human IL-1β [7]) is reported as 3 fold and the “neutralizing activity in MRC-5 bioassay, fold less than the chimeric antibodies” value (recombinant human IL-1α [8]) is reported as 3 fold. The “neutralizing activity in MRC-5 bioassay, fold higher than DVD1-Ig” value (recombinant human IL-1β [9]) was 3 fold, the “Potency (IC50) M, MRC-5 bioassay” value (recombinant human IL-1α [3]) was 2.9 nM and the “Potency (IC50) M, MRC-5 bioassay” value (recombinant human IL-1β [10]) was 1.6 nM. For the same binder, the “Stoichiometry hIL-1α:DVD-Ig” value (recombinant human IL-1α [11]) was 1.8, the “Stoichiometry hIL-1β:DVD-Ig” value (recombinant human IL-1β [12]) was 1.6 and the Stoichiometry (recombinant human IL-1α [13]) was 2. The Stoichiometry (recombinant human IL-1β [14]) was 1.8, the “Stoichiometry hIL-1α:DVD-Ig” value (recombinant human IL-1α [15]) was 1.2 and the “Stoichiometry hIL-1β:DVD-Ig” value (recombinant human IL-1β [16]) was 1.3. The Kd (recombinant human IL-1α [17]) was 3.42 nM, the koff (recombinant human IL-1α [17]) was 0.000252 s⁻¹ and the kon (recombinant human IL-1α [17]) was 73500 M⁻¹ s⁻¹. The Kd (recombinant human IL-1β [18]) was 0.798 nM, the koff (recombinant human IL-1β [18]) was 0.00095 s⁻¹ and the kon (recombinant human IL-1β [18]) was 1.19e+06 M⁻¹ s⁻¹.

B3: murine monoclonal antibody 13F5.G5 (antibody, V domains shown)
VH: QVQLQQSGAELVRPGSSVKISCKASGYAFSSYWMNWVKQRPGQGLEWIGQIYPGDGDTNYNGKFKGKATLTADKSSSTSYMQLSGLTSEDSAMYFCVRFPTGNDYYAMDYWGQGTSVTVSS
VL: NIVLTQSPASLAVSLGQRATISCRASESVDSYGNSYMHWYQQKPGQPPKLLIYLASNLESGVPARFSGSGSRTDFTLTIDPVEADDAATYYCQQNNEDPFTFGSGTKLEIKR
notes: Murine hybridoma mAb, anti-hIL-1β
For B3, the Kd (recombinant human IL-1β [19]) was 0.291 nM, the koff (recombinant human IL-1β [19]) was 0.000621 s⁻¹ and the kon (recombinant human IL-1β [19]) was 2.13e+06 M⁻¹ s⁻¹. The “IC50 (M), MRC-5 bioassay (inhibition of IL-8 production)” value (recombinant human IL-1β [20]) was 6e-10 M, the “Potency (IC50) M, MRC-5 bioassay” value (recombinant human IL-1β [10]) was 0.6 nM and the Stoichiometry (recombinant human IL-1β [21]) was 1.8. The Kd (recombinant human IL-1β [22]) was 0.291 nM.
